Test results taken from patent US20120192301.

Tests used:
[1] = test system: SBS 26323 ZFN (engineered); experiment: cell_activity; conditions: Cel-I indels, pair 26323/26334, K562, no donor
[2] = test system: SBS 26334 ZFN (engineered); experiment: cell_activity; conditions: Cel-I indels, pair 26323/26334, K562, no donor

| Sequence | activity [1] [%] | activity [2] [%] |
| --- | --- | --- |
| CACACCATGCACCACTCCCTCCTTGGTT (double strand) [SNCA site 37 (26323/26327/26331)] | < 45 | – |
| AACAGGTAAGCTCCATTGTGCTTATATC (double strand) [SNCA site 36 (25358/26334)] | – | < 45 |
